Reference: paper PMC3431625

Assays:
[1] = biological target: Bovine collagen type IV (bovine) (UniProt Q7SIB2); test: ELISA
[2] = biological target: Pepsinized collagen type II (UniProt P02459); test: ELISA
Sequence of Pepsinized collagen type II (P02459 26-1487): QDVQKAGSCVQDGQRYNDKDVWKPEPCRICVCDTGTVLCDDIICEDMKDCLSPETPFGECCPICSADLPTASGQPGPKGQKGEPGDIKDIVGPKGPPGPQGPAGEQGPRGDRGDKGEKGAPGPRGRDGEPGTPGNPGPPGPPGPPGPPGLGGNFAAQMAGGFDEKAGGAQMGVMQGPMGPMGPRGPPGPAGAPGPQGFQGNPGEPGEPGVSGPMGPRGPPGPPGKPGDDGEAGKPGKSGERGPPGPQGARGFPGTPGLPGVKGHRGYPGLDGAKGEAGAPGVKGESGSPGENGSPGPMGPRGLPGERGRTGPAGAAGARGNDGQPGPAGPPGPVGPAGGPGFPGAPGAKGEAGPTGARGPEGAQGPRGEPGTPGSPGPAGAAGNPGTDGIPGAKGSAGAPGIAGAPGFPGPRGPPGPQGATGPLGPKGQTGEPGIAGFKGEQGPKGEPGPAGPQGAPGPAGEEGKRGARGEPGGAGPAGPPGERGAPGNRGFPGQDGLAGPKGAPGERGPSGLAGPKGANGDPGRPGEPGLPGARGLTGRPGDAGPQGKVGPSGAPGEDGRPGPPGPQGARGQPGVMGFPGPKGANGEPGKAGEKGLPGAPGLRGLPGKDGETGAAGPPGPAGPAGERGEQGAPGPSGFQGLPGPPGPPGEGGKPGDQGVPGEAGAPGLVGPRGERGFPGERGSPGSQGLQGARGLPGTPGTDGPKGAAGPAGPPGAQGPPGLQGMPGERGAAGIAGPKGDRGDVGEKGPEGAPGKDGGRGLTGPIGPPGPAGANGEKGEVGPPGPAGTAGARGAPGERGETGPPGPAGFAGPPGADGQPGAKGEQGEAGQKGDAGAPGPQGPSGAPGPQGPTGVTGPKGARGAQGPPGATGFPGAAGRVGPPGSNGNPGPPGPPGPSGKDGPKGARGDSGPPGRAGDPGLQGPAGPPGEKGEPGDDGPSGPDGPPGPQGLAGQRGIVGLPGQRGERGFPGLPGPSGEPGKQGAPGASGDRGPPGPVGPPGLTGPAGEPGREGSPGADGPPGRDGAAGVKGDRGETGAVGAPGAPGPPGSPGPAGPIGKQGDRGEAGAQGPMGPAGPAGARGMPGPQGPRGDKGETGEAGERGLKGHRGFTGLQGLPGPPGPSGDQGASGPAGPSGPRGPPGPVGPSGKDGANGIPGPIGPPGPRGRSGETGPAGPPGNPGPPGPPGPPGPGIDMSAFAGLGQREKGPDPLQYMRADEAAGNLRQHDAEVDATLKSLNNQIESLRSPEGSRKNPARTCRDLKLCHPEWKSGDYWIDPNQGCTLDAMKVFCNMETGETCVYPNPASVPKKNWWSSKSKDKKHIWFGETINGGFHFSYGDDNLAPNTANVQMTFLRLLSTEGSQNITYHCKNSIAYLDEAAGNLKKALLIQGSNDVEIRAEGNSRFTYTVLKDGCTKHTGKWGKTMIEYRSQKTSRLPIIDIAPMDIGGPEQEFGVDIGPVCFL

Sequence of Bovine collagen type IV (bovine) (Q7SIB2 28-1669, chain 1 of 2): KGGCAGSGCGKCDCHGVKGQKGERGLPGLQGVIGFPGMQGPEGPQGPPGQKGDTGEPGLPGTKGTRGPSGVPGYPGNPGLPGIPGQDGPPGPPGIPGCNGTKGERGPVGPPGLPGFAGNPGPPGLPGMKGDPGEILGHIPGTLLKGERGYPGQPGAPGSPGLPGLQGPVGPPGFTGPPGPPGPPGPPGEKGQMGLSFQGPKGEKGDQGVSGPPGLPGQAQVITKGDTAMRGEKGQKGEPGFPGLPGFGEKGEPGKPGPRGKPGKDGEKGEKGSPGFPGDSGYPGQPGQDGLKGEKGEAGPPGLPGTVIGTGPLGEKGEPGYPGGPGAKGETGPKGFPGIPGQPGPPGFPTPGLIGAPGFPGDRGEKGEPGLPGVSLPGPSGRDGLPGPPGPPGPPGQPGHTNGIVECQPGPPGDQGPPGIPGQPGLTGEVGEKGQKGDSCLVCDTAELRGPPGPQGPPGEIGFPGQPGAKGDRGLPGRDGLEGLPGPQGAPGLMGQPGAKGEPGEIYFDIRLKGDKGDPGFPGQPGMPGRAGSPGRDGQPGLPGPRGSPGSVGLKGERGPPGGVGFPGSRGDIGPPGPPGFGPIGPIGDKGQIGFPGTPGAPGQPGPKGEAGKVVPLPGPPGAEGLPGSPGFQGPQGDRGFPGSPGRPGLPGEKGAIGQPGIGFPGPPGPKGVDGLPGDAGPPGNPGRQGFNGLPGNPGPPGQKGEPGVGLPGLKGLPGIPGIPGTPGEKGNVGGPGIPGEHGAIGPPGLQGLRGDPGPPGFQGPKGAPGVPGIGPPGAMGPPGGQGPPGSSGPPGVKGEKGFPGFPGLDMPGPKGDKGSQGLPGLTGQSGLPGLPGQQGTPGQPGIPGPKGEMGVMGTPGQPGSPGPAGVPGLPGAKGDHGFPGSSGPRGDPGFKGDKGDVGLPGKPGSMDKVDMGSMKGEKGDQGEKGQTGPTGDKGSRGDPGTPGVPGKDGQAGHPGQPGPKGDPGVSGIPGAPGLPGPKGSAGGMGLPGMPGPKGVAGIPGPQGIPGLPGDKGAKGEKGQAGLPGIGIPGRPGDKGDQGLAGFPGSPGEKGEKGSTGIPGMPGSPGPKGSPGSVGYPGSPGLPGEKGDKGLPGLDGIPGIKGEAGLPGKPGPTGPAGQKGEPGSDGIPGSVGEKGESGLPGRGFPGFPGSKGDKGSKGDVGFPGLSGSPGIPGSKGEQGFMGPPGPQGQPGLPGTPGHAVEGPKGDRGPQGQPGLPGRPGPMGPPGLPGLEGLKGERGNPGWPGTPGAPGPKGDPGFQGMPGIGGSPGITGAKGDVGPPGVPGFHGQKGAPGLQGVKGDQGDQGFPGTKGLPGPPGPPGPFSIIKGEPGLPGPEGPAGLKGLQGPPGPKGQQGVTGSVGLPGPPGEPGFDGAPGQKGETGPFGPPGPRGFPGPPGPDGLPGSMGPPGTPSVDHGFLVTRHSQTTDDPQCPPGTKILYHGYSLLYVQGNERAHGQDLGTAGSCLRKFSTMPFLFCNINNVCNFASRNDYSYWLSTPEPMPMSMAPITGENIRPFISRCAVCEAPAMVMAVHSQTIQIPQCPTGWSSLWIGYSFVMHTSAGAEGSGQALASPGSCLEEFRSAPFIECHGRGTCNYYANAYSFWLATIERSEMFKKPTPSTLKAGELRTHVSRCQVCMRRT
Sequence of Bovine collagen type IV (bovine) (Q7SIB3 whole entry, chain 2 of 2, further chain): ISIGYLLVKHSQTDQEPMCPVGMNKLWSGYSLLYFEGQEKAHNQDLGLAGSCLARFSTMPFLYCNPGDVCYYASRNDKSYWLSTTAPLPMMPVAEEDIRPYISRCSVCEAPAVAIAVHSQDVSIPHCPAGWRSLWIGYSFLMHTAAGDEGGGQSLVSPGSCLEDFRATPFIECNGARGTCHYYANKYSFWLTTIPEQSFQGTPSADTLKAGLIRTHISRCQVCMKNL

B1: Recombinant bovine opticin (natural protein)
chain: ASLSEEREGDPYAILHLGDYVLSLDNYDEVIDPSNYDELIDYGDQLPQVKGTSLASLTRTRFTQSTEAARTLPSNPTTARPPTLGLLAAPANHGLPTCLICVCLGSSVYCDDADLENIPPLPQTTAYLYARFNRISHIRAGDFKGLTKLKRIDLSGNSISSIDDKALRLLPALRDLILPENKLVALPTLPTSIEVLDVRMNRLQSSGIQPEAFRALEKLQFLYLADNLLDAIPPSLPLSLRSLHLQNNMIETMQRDAFCDAEEHRHTRRPLEDIRLDGNPINLSLFPSAYFCLPRLPTGRFV
[1]
  Kd: 500 nM
[2]
  Kd: 40 nM
